Measured values taken from PMC8439235, “High-yield synthesis and purification of recombinant human GABA transaminase for high-throughput screening assays” (Journal of Enzyme Inhibition and Medicinal Chemistry, 2021).

Target: the molecule itself
Experiment: SEC; Superdex 200 Increase 10/300 GL, 50 mM K4P2O7 buffer pH 8.6, 0.5 ml/min, 4 °C; size judged against standard peaks (158 kDa and 44 kDa) and the 53 kDa monomer band on reducing SDS-PAGE

B1: 6xHis-tagged recombinant human GABA transaminase (GABA-T) (enzyme)
chain: not shown
notes: human GABA transaminase (GABA-T; EC 2.6.1.19) encoded by the ABAT gene; The band on reducing SDS-PAGE was 53 kDa; The purification tag was not removed; also called γ-aminobutyric acid transaminase; 4-aminobutyrate transaminase; source: Expi293F cells, transiently transfected, purified (Ni-NTA, size-exclusion chromatography); not shown: Avi-tag (preceded by an HRV 3C protease site), C-terminal, …
- stoichiometry N: 2
